Data on five molecules can be found in patent US20210253718A1 (MODMAB THERAPEUTICS, published 2021).

Assay [1] addresses T1, FZD9 cysteine-rich domain (CRD), MYC-tagged and GPI-anchored on CHO cells (human, UniProt O00144 35-161, GPI anchor).
T1 construct: also called FZD9 CRD; CHO-myc-FZDGPI; not shown: MYC tag and GPI anchor signal
T1 sequence: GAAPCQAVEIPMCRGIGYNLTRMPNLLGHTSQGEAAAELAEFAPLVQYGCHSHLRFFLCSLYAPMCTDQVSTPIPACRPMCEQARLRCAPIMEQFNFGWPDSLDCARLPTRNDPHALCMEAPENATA
The experiment in a line: immunofluorescence, CHO-CRD cells.

Assay [2] concerns the target T2, FZD2 cysteine-rich domain (CRD), MYC-tagged and GPI-anchored on CHO cells (human, UniProt Q14332 35-161). The experiment in a line: immunofluorescence, CHO-CRD cells.
Assay [3] has as its target T3, FZD1 cysteine-rich domain (CRD), MYC-tagged and GPI-anchored on CHO cells (human). The experiment in a line: immunofluorescence, CHO-CRD cells.
In assay [4] the target is T4, FZD7 cysteine-rich domain (CRD), MYC-tagged and GPI-anchored on CHO cells (human, UniProt O75084 45-169). The experiment in a line: immunofluorescence, CHO-CRD cells.
Assay [5] deals with T5, FZD6 cysteine-rich domain (CRD), MYC-tagged and GPI-anchored on CHO cells (human, UniProt O60353 20-146, GPI anchor).
T5 construct: also called FZD6 CRD; CHO-myc-FZDGPI; not shown: MYC tag and GPI anchor signal
T5 sequence: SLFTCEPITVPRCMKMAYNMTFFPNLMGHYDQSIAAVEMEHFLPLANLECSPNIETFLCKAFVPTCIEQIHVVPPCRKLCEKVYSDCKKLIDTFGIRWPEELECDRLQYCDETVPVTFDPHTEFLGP
The experiment in a line: immunofluorescence, CHO-CRD cells.

In assay [6] the target is T6, FZD10 cysteine-rich domain (CRD), MYC-tagged and GPI-anchored on CHO cells (human, UniProt Q9ULW2 30-156, GPI anchor).
T6 construct: also called FZD10 CRD; CHO-myc-FZDGPI; not shown: MYC tag and GPI anchor signal
T6 sequence: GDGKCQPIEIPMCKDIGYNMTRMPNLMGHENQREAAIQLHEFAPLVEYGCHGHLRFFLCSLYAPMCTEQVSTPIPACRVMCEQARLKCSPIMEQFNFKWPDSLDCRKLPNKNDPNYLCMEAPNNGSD
As to the kind of experiment: immunofluorescence, CHO-CRD cells.

Assay [7] deals with T7, FZD3 cysteine-rich domain (CRD), MYC-tagged and GPI-anchored on CHO cells (human, UniProt Q9NPG1 24-150, GPI anchor).
T7 construct: domain: cysteine-rich domain (CRD); also called FZD3 CRD; CHO-myc-FZDGPI; not shown: MYC tag and GPI anchor signal
T7 sequence (looked up): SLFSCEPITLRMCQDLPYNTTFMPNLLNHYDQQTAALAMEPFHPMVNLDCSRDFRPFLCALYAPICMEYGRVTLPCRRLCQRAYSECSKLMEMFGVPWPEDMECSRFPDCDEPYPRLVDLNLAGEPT
As to the kind of experiment: immunofluorescence, CHO-CRD cells.

The target of assay [8] is T1, FZD9 cysteine-rich domain (CRD), …. As to the kind of experiment: flow cytometry, CHO-CRD cells.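 Also: flow cytometry of Fab binding to CHO cells overexpressing a Frizzled CRD, with binding defined as median fluorescence over twice that of CHO cells lacking any Frizzled CRD.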 Background: In flow cytometry, cells or beads pass a laser one at a time.
Protocol: (§1) Binding was measured via flow cytometry analysis of CHO cells overexpressing CRD of FZD1, FZD2, FZD3, FZD4, FZD5, FZD6, FZD7, FZD8, FZD9 or FZD10. Median fluorescence values are shown.
For assay [9], the target named is T2, FZD2 cysteine-rich domain (CRD), …. The experiment in a line: flow cytometry, CHO-CRD cells.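 Also: flow cytometry of Fab binding to CHO cells overexpressing a Frizzled CRD, with binding defined as median fluorescence over twice that of CHO cells lacking any Frizzled CRD.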
Protocol: as §1
Assay [10] addresses T3, FZD1 cysteine-rich domain (CRD), …. The experiment in a line: flow cytometry, CHO-CRD cells.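 Also: flow cytometry of Fab binding to CHO cells overexpressing a Frizzled CRD, with binding defined as median fluorescence over twice that of CHO cells lacking any Frizzled CRD.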
Protocol: as §1
The target in assay [11] is T8, FZD5 cysteine-rich domain (CRD), MYC-tagged and GPI-anchored on CHO cells (human, UniProt Q13467 29-156, GPI anchor).
T8 construct: also called FZD5 CRD; CHO-myc-FZDGPI; not shown: MYC tag and GPI anchor signal
T8 sequence: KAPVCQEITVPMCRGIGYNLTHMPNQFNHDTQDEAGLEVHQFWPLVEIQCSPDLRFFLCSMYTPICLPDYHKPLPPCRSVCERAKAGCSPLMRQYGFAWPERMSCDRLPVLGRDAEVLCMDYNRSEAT
As to the kind of experiment: flow cytometry, CHO-CRD cells.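 Also: flow cytometry of Fab binding to CHO cells overexpressing a Frizzled CRD, with binding defined as median fluorescence over twice that of CHO cells lacking any Frizzled CRD.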

For assay [12], the target named is T4, FZD7 cysteine-rich domain (CRD), …. As to the kind of experiment: flow cytometry, CHO-CRD cells.
Protocol: as §1
For assay [13], the target named is T5, FZD6 cysteine-rich domain (CRD), …. As to the kind of experiment: flow cytometry, CHO-CRD cells.
Protocol: as §1
Assay [14] concerns the target T9, FZD8 cysteine-rich domain (CRD), MYC-tagged and GPI-anchored on CHO cells (human, UniProt Q498S8 31-155 (rat entry), GPI anchor).
T9 construct: also called FZD8 CRD; CHO-myc-FZDGPI; not shown: MYC tag and GPI anchor signal
T9 sequence: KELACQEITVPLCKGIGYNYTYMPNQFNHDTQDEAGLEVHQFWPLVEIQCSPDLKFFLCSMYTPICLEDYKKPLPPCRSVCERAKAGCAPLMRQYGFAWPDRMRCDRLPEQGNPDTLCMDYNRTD
As to the kind of experiment: flow cytometry, CHO-CRD cells.

The target in assay [15] is T6, FZD10 cysteine-rich domain (CRD), …. As to the kind of experiment: flow cytometry, CHO-CRD cells.
Protocol: as §1
Assay [16] has as its target T7, FZD3 cysteine-rich domain (CRD), …. As to the kind of experiment: flow cytometry, CHO-CRD cells.
Protocol: as §1
Assay [17] has as its target T10, FZD4 cysteine-rich domain (CRD), MYC-tagged and GPI-anchored on CHO cells (human, UniProt Q9ULV1 42-167, GPI anchor).
T10 construct: also called FZD4 CRD; CHO-myc-FZDGPI; not shown: MYC tag and GPI anchor signal
T10 sequence: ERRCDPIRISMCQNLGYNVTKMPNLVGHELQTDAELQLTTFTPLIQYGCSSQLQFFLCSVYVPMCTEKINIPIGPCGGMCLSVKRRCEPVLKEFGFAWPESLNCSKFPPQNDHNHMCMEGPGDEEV
As to the kind of experiment: immunofluorescence, CHO-CRD cells.

The target of assay [18] is T10, FZD4 cysteine-rich domain (CRD), …. The experiment in a line: flow cytometry, CHO-CRD cells.
Protocol: as §1

Where a chain is given by its changes, count along the chain named.

B1: Fab-2922 (Fab, V domains shown)
VH: EVQLVESGGGLVQPGGSLRLSCAASGFNIYSSYMHWVRQAPGKGLEWVASISPYSGYTSYADSVKGRFTISADTSKNTAYLQMNSLRAEDTAVYYCARTVRGSKKPYFSGWAMDYWGQGTLVTVSS
VL: DIQMTQSPSSLSASVGDRVTITCRASQSVSSAVAWYQQKPGKAPKLLIYSASSLYSGVPSRFSGSRSGTDFTLTISSLQPEDFATYYCQQSFVYPYLITFGQGTKVEIK
notes: Fab; also called Fv-2922
On to B1, for which the binding result in assay [1], in assay [2], in [3], in assay [4], in assay [5] and in assay [6] was “no binding” each time. Further, the binding result in [7] is on record as “no binding”. Moreover, the median fluorescence in [8] was found to be 2.89; in [9], 4.78; in assay [10], 4.83; in [11], 56.2; in assay [12], 2.62; in assay [13] it was 3.68. Moreover, the median fluorescence in assay [14] is 9.14; in [15], 2.74; in [16], 4.1.

B2: Fab-2920 (Fab, V domains shown)
VH: EVQLVESGGGLVQPGGSLRLSCAASGFNISYYYIHWVRQAPGKGLEWVASIYPSSGSTSYADSVKGRFTISADTSKNTAYLQMNSLRAEDTAVYYCARGGMDYWGQGTLVTVSS
VL: DIQMTQSPSSLSASVGDRVTITCRASQSVSSAVAWYQQKPGKAPKLLIYSASSLYSGVPSRFSGSRSGTDFTLTISSLQPEDFATYYCQQWFAGALITFGQGTKVEIK
notes: Fab
As for B2, the binding result in assay [1], in [2], in assay [3], in assay [4], in assay [17] and in assay [5] was “no binding” throughout. The binding result in [6] and in [7] was “no binding” in each case. In addition, the median fluorescence in assay [8] came to 2.89; in [9], 4.57; in assay [10], 5.73; in [11], 28.6; in assay [12] it was 4.91; in assay [18], 4.22. Further, the median fluorescence in [13] came to 3.02; in assay [14], 7.5; in assay [15] it was 2.94; in assay [16] it was 3.75.

B3: Fab-2926 (Fab, V domains shown)
VH: B2 VH with S30Y, Y31S, Y32S, I34M, G56S, M101L
VL: B1 VL with S91W, F92Y, V93H, Y94G, P95G, Y96S, I98F
notes: Fab; also called Fv-2926
Regarding B3, the binding result in assay [1], in assay [2], in assay [3], in assay [4], in [17] and in assay [5] was “no binding” throughout. For the same molecule, the binding result in assay [6] and in assay [7] was “no binding” each time. Also, the median fluorescence is 3.65 in assay [8]; 6.21 in assay [9]; 7.17 in assay [10]; 34.6 in assay [11]; 2.71 in assay [12]; 6.73 in assay [18]. The median fluorescence in assay [13] was found to be 3.05; in [14], 12.9; in [15], 2.92; in assay [16] it was 4.61.

B4: Fab-2936 (Fab, V domains shown)
VH: B2 VH with I34M, P53S, G99A, G100A
VL: B2 VL with F92Y, G94A, A95S
notes: Fab; also called Fv-2936
Turning to B4, the binding result in [1], in assay [2], in assay [3], in assay [4], in assay [17] and in [5] was “no binding” each time. The binding result in assay [6] and in assay [7] was “no binding” in each case. For the same molecule, the median fluorescence came to 2.74 in assay [8]; 3.52 in assay [9]; 3.05 in assay [10]; 23.5 in assay [11]; 2.55 in assay [12]; 3.65 in [18]. The median fluorescence is 2.57 in assay [13], 7.04 in assay [14], 2.5 in [15] and 3 in [16].

B5: Fab-2924 (Fab, V domains shown)
VH: B2 VH with Y32S, P53S, S54Y, S55Y, G56S, G100A, M101L
VL: B1 VL with S91W, F92Y, V93S, Y94G, P95H, Y96S
notes: Fab; also called Fv-2924
For B5, the binding result in assay [1], in assay [2], in assay [3], in assay [4], in assay [17] and in assay [5] was “no binding” throughout. Further, the binding result in assay [6] and in assay [7] was “no binding” throughout. The median fluorescence in assay [8] stood at 4.49; in assay [9], 6.73; in [10] it was 6.26; in assay [11] it was 39.2; in [12], 6.49; in assay [18], 6.38. In addition, the median fluorescence in assay [13] was 4.49; in [14], 12.1; in assay [15] it was 4.78; in assay [16], 4.7.
